± gives the standard deviation of the averaged measurements.
How the values were obtained:
[1] = test system: MCF7; experiment: percentage of EdU-negative (G0-arrested) nuclei per well, 72 h; higher = more G0 arrest; conditions: reference: sequence is the full UniProt precursor, the tested protein was the secreted form or ectodomain
[2] = test system: hTERT-HMEC; experiment: as above; conditions: reference: sequence is the full UniProt precursor, the tested protein was the secreted form or ectodomain
[3] = protein concentration 0.0225 µM
[4] = protein concentration 0.0143975 µM
[5] = protein concentration 0.0290625 µM
[6] = protein concentration 0.143975 µM
[7] = protein concentration 0.290625 µM
[8] = protein concentration 0.0065 µM
[9] = protein concentration 0.00525 µM
[10] = protein concentration 0.0525 µM
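Also: secreted proteins added to cultured cells, EdU pulse at the end, nuclei found by Hoechst imaging, EdU status from nuclear versus surrounding ring intensity ratio, PBS as neutral control.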

Sequence: MEACCLLQLPQRLLLLGAAALTATALETADLAELCGQTWQGDGLLLRSHAASRRFYFVAPDTDCGLWVQAAAPGDRIRFQFRFFLVYSLTPAPPALNTSSPAPADPCAPGSYLQFYEGPPGAPRPLGSPLCGLNIPVPVASSGPFLGLRLVTRGRQPRVDFVGEVTSFRLGPCGAYFRCQNGRCIPSSLVCDPWGMDNCGDGSDQGSWSPADCRGPSPVPSQTGSTDAHTSRSLTPSPALGSAGSLWIAAERSSPAGRDPTRQDAALEGSTE [Q5SZI1]
- percentage of EdU-negative [1, 3]: 24.6 ± 1.8%
- percentage of EdU-negative ([1]; protein concentration 0.225 µM): 25.3 ± 0.88%
- percentage of EdU-negative [2, 3]: 5.13 ± 0.83%
- percentage of EdU-negative ([2]; protein concentration 0.225 µM): 5.979 ± 0.048%

Sequence: MEALMARGALTGPLRALCLLGCLLSHAAAAPSPIIKFPGDVAPKTDKELAVQYLNTFYGCPKESCNLFVLKDTLKKMQKFFGLPQTGDLDQNTIETMRKPRCGNPDVANYNFFPRKPKWDKNQITYRIIGYTPDLDPETVDDAFARAFQVWSDVTPLRFSRIHDGEADIMINFGRWEHGDGYPFDGKDGLLAHAFAPGTGVGGDSHFDDDELWTLGEGQVVRVKYGNADGEYCKFPFLFNGKEYNSCTDTGRSDGFLWCSTTYNFEKDGKYGFCPHEALFTMGGNAEGQPCKFPFRFQGTSYDSCTTEGRTDGYRWCGTTEDYDRDKKYGFCPETAMSTVGGNSEGAPCVFPFTFLGNKYESCTSAGRSDGKMWCATTANYDDDRKWGFCPDQGYSLFLVAAHEFGHAMGLEHSQDPGALMAPIYTYTKNFRLSQDDIKGIQELYGASPDIDLGTGPTPTLGPVTPEICKQDIVFDGIAQIRGEIFFFKDRFIWRTVTPRDKPMGPLLVATFWPELPEKIDAVYEAPQEEKAVFFAGNEYWIYSASTLERGYPKPLTSLGLPPDVQRVDAAFNWSKNKKTYIFAGDKFWRYNEVKKKMDPGFPKLIADAWNAIPDNLDAVVDLQGGGHSYFFKGAYYLKLENQSLKSVKFGSIKSDWLGC
- percentage of EdU-negative [1, 4]: 23.9 ± 0.91%
- percentage of EdU-negative [1, 5]: 26.7 ± 1.5%
- percentage of EdU-negative [1, 6]: 25.25 ± 0.19%
- percentage of EdU-negative [1, 7]: 27.8 ± 0.84%
- percentage of EdU-negative [2, 4]: 4.84 ± 0.7%
- percentage of EdU-negative [2, 5]: 5.59 ± 1.1%
- percentage of EdU-negative [2, 6]: 9.87 ± 1.2%
- percentage of EdU-negative [2, 7]: 4.97 ± 0.54%

Sequence: MEALPLLAATTPDHGRHRRLLLLPLLLFLLPAGAVQGWETEERPRTREEECHFYAGGQVYPGEASRVSVADHSLHLSKAKISKPAPYWEGTAVIDGEFKELKLTDYRGKYLVFFFYPLDFTFVCPTEIIAFGDRLEEFRSINTEVVACSVDSQFTHLAWINTPRRQGGLGPIRIPLLSDLTHQISKDYGVYLEDSGHTLRGLFIIDDKGILRQITLNDLPVGRSVDETLRLVQAFQYTDKHGEVCPAGWKPGSETIIPDPAGKLKYFDKLN
- percentage of EdU-negative [1, 3]: 26.1 ± 1.3%
- percentage of EdU-negative ([1]; protein concentration 0.225 µM): 27.8 ± 0.15%
- percentage of EdU-negative [2, 3]: 5.57 ± 1.3%
- percentage of EdU-negative ([2]; protein concentration 0.225 µM): 4.84 ± 0.26%

Sequence: MEAVAVAAAVGVLLLAGAGGAAGDEAREAAAVRALVARLLGPGPAADFSVSVERALAAKPGLDTYSLGGGGAARVRVRGSTGVAAAAGLHRYLRDFCGCHVAWSGSQLRLPRPLPAVPGELTEATPNRYRYYQNVCTQSYSFVWWDWARWEREIDWMALNGINLALAWSGQEAIWQRVYLALGLTQAEINEFFTGPAFLAWGRMGNLHTWDGPLPPSWHIKQLYLQHRVLDQMRSFGMTPVLPAFAGHVPEAVTRVFPQVNVTKMGSWGHFNCSYSCSFLLAPEDPIFPIIGSLFLRELIKEFGTDHIYGADTFNEMQPPSSEPSYLAAATTAVYEAMTAVDTEAVWLLQGWLFQHQPQFWGPAQIRAVLGAVPRGRLLVLDLFAESQPVYTRTASFQGQPFIWCMLHNFGGNHGLFGALEAVNGGPEAARLFPNSTMVGTGMAPEGISQNEVVYSLMAELGWRKDPVPDLAAWVTSFAARRYGVSHPDAGAAWRLLLRSVYNCSGEACRGHNRSPLVRRPSLQMNTSIWYNRSDVFEAWRLLLTSAPSLATSPAFRYDLLDLTRQAVQELVSLYYEEARSAYLSKELASLLRAGGVLAYELLPALDEVLASDSRFLLGSWLEQARAAAVSEAEADFYEQNSRYQLTLWGPEGNILDYANKQLAGLVANYYTPRWRLFLEALVDSVAQGIPFQQHQFDKNVFQLEQAFVLSKQRYPSQPRGDTVDLAKKIFLKYYPRWVAGSW
- percentage of EdU-negative [1, 8]: 24.9 ± 1.1%
- percentage of EdU-negative ([1]; protein concentration 0.065 µM): 26 ± 2.8%
- percentage of EdU-negative [2, 8]: 4.39 ± 0.1%
- percentage of EdU-negative ([2]; protein concentration 0.065 µM): 5.55 ± 0.91%

Sequence: MEDLCVANTLFALNLFKHLAKASPTQNLFLSPWSISSTMAMVYMGSRGSTEDQMAKVLQFNEVGANAVTPMTPENFTSCGFMQQIQKGSYPDAILQAQAADKIHSSFRSLSSAINASTGNYLLESVNKLFGEKSASFREEYIRLCQKYYSSEPQAVDFLECAEEARKKINSWVKTQTKGKIPNLLPEGSVDGDTRMVLVNAVYFKGKWKTPFEKKLNGLYPFRVNSAQRTPVQMMYLREKLNIGYIEDLKAQILELPYAGDVSMFLLLPDEIADVSTGLELLESEITYDKLNKWTSKDKMAEDEVEVYIPQFKLEEHYELRSILRSMGMEDAFNKGRANFSGMSERNDLFLSEVFHQAMVDVNEEGTEAAAGTGGVMTGRTGHGGPQFVADHPFLFLIMHKITNCILFFGRFSSP
- percentage of EdU-negative [1, 9]: 24.7 ± 0.25%
- percentage of EdU-negative [1, 10]: 27.383 ± 0.014%
- percentage of EdU-negative [2, 9]: 5.431 ± 0.036%
- percentage of EdU-negative [2, 10]: 5.26 ± 1.3%

Sequence: MEEAILVPCVLGLLLLPILAMLMALCVHCHRLPGSYDSTSSDSLYPRGIQFKRPHTVAPWPPAYPPVTSYPPLSQPDLLPIPRSPQPLGGSHRTPSSRRDSDGANSVASYENEGASGIRGAQAGWGVWGPSWTRLTPVSLPPEPACEDADEDEDDYHNPGYLVVLPDSTPATSTAAPSAPALSTPGIRDSAFSMESIDDYVNVPESGESAEASLDGSREYVNVSQELHPGAAKTEPAALSSQEAEEVEEEGAPDYENLQELN
- percentage of EdU-negative [1, 3]: 25.6 ± 1.2%
- percentage of EdU-negative ([1]; protein concentration 0.225 µM): 25.8 ± 2.6%
- percentage of EdU-negative [2, 3]: 5.1 ± 0.68%
- percentage of EdU-negative ([2]; protein concentration 0.225 µM): 5.5816 ± 0.0039%
